# Variants at the floor of the assay were thinned out.
# B1: TPR 5TU (parent)
# chain: GGAUCUUCUCGAUCUAACAAAAAAGACAAAUCUGCCACAAAGCUUGAGAGCAUCUUCGGAUGCAGAGGCGGCAGCCUUCGGUGGCGCGAUAGCGCCAACGUUCUCAACUAUGACACGCAAAACGCGUGCUCCGUUGAAUGGAGUUUAUCAUG
# Variants of: B1
# Test: polymerase ribozyme fitness, log enrichment relative to wild type (log ratio); higher = more active; in vitro selection for triplet polymerase activity
# Summary of the method: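 To select mutant libraries of each subunit of a heterodimeric triplet polymerase ribozyme, built by PCR and transcribed, each was annealed with a biotinylated primer, partner subunit and triplets, then incubated frozen at −7 °C. Extended constructs were gel-excised, captured on streptavidin beads and amplified by RT-PCR, in one round carried out in triplicate. Illumina sequencing of input and output libraries kept genotypes with ≥10 input reads and ≥1 read per output. Fitness is the base-2 logarithm of genotype enrichment relative to wild-type enrichment, from inverse-variance-weighted replicate averages.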
row,Variant,polymerase ribozyme fitness (log ratio)
1,GGAUCUUCUCGAUCUAACAAAAUAGACAAAUCUGCCACAAAGCUCGAGAGCAUCUUCGGAUGCAGGGGCGGCAGCCUUCGGUGGUGCGAUAGCGCCAACGUUCUCAACUAUGACACGCAAAACGCGUGCUCCGUUGAAUGGAGUUUAUCAUG [A23U U45C A66G C85U],≤ -4.2
2,GGAUCUUCUCGAUCUAACAAAAUAGACAAAUCUGCCACAAACCUUGAGAGCAUCUUCGGAUGCAGAGGCGGCAGUCUUCGGGGUCGCGAUAGCGCAAACGUUCUCAACUAUGACACGCAAAACGCGUGCUCCGUUGAAUGGAGUUUAUCAUG [A23U G42C C75U U82G G84U C96A],≤ -4.2
3,GGAUCUUCUCGAUCUAACAAAAUAGACAAAUCUGCCACAAAGCUUGAGAGCAUCUUCGGAUGCAGAGGCGGCAGCCUUCGGUGGCGCGAUAGCGCCAACGUUCUCAACUAUGAUACGCAAAACGCGUGCUCCGUUGAAUGGAGUUUAUCAUG [A23U C114U],-3.88
4,GGAUCUUCUCGAUCUAACAAAAUAGACAAAUCUGCCACAAAGCUUGAGAGCAUCUUCGGAUGCAGAGGCGGCAGCCUUCGGUGGCGCGAUAGCGCCAACGUUCUCAACUAUGACACGCAAAACGAGUGCUCCGUUGAAUGGAGUUUAUCAUG [A23U C125A],-3.51
5,GGAUCUUCUCGAUCUAACAAAAUAGACAAAUCUGCCACAAAGCUUGAGAGCAUUUUCGGAUGCAGAGGCGGCAUCCUGCGGUGGCGCGAUAGCGCCAACGUUCUCAACUAUGACACGCAAAACGCGUGCUCCGUUGAAUGGAGUUUAUCAUG [A23U C54U G74U U78G],≤ -4.2
6,GGAUCUUCUCGAUCUAACAAAAUACACAAAUCUGCCACAAAGCUUGAGAGCCUCAUCGGAUGCAGAGGCGGCAGCCUUCGGUGGCGCGAUAGCGCCAACGUUCUCAACUAUGACACGCAAACCGCGUGCUCCGUUGAAUGGAGUUUAUCAUG [A23U G25C A52C U55A A122C],≤ -4.2
7,GGAUCUUCUCGAUCUAACAAAAUAGACAAAUCUGCCACAAAGCUUGAGAGCAUCUUCGGAUGCAGAGGCGGCAGCCUUCGGUGGCGCUAUAGCGCCAACGUUCUCAACUAUGACAUGCAAAACGCGUGCUCCGUUGAAUUGAUUUGAUCAUG [A23U G88U C116U G140U G143U U146G],≤ -4.2
8,GGAUCUUCUCGAUCUAACAAAAUAGACAAAUCUGCCACAAAGCUUGAGAGCAUCUUCGGAUGCAGAGGCGGCAGCCUUCGGUGGGGCGAUAGCGCCAACGUUCUCAACUAUGACACGCAAAACGCGUGCUCCGUUGAAUGAAGUUUAUCAUG [A23U C85G G141A],≤ -4.2
9,GGAUCUUCUCGAUCUAACAAAAUAGACAAAUCUGCCACAAAGCUUGAGAGCAUCUUCGGAUGCAGAGGCGGCAGCCUUCGGUGGCGCGAUAGCGCUAACGUUCUCAACUAUGACACGCAAAACGCGUGCUCCGUUGAAUGGAGUUUAUCAUG [A23U C96U],-4.1
10,GGAUCUUCUCGAUCUAACAAAAUAGACAAAUCUGCCACAAAGCUUGAGACCAUCUUCGGAUGCAGAGGCGGCAGCCUUCGGUGGCGCGAUAGCGCCAACGUUCUCAACUAUGACACGCAAACCGCGUGCUCCGUUGAAUGCAGUUUAUCAUG [A23U G50C A122C G141C],≤ -4.2
11,GGAUCUUCUCGAUCUAACAAAAUAGACAAAUCUGCCACAAAGCUUGAGACCAUCUUCGGAUGCAGAGGCGGCAGCCUUCGGUGGCGCGAUAGCGCCAACGUUCUCAACUAUGACACGCAAAACGCGUGCUCCGUUGAAGGGAGUUUAUCAUG [A23U G50C U139G],≤ -4.2
12,GGAUCUUCUCGAUCUAACAAAAUAGACAAAUCUGCCACAAAGCUUGAGAGCAUCUUCGGAUGCAGAGGCGGCAGCCUUCGGUGGCGCGAUAGUGCCAACGUUCUCAACUAUGACACGCAAAACGCUUGCUCCGUUGAAUGGAGUUUAUCAUG [A23U C93U G126U],≤ -4.2
13,GGAUCUUCUCGAUCUAACAAAAUAGACAAAUCUGCCACAAAGCUUGAGAGCAUCUUCGUAUGCAGAGGCGGCAGCCUUCGGUGGCGCGAUAGUGCCAACGUUCUCAACUAUGACACGCAAAACGCGUGCUCCGUUGAAUGGAGUUUAUCAUG [A23U G59U C93U],≤ -4.2
14,GGAUCUUCUCGAUCUAACAAAAUAGACAAAUCUGCCACAAAGCUUGAGAGCAUCUUCGGAUGCAGAGGCGGCAUCCUUCGGGGGCGCGAUAGCGCCAACGUUCUCAACUAUGACACGCAAAACGCGUGCUCCGUUGAAUGGAGUUUAUCAUG [A23U G74U U82G],≤ -4.2
15,GGAUCUUCUCGAUCUAACAAAAUAGACAAAUCUGCCACAAAGCUUGAGAGCAUCUUCGGAUGCAGAGCCGGCAGCGUUCCGUGGCGCGUUAGCGCCAACGUUCUCAACUAUGACACGCAAAACGCGUGCUCCGUUGAAUGGAGUUUAGCAUG [A23U G68C C76G G80C A89U U148G],≤ -4.2
16,GGAUCUUCUCGAUCUAACAAAAUAGACAAAUCUGCCACAAAGCUUGAGAGCAUCAUUGGAUGCAGAGUCGGCGGCCUUCCGUGGCGCGAUAGCUCCAACGUUCCCAACUAUGACACGCAAAACGCGUGCUCCGUUGAAUGGAGUUUAUCAUG [A23U U55A C57U G68U A73G G80C G94U U104C],≤ -4.2
17,GGAUCUUCUCGAUCUAACAAAAUAGACAAAUCUGCCACAAAGCUUGAGAGCAUCUUCGGAUGCAGAGGCGGCAGCCUUCGGUGGUGCGAUGGCGCCAACGUUCUCAACUAUGACACGCAAAACGCCUGCUCCGUUGAAUUGAGUUUAUCAUG [A23U C85U A91G G126C G140U],≤ -4.2
18,GGAUCUUCUCGAUCUAACAAAAUAGACAAAUCUGCCACAAAGCUUGAGAGCAUCUUCGGAUGCAGAGGCGGCAGCCUUCGGUGGUGCGAUAGCGCCAACGUACUCAUCUAUGACACGCAAAACGCGUGCGCCGUGGACUGGAGUUUAUCAUG [A23U C85U U102A A107U U130G U135G A138C],≤ -4.2
19,GGAUCUUCUCGAUCUAACAAAAUAGACAAAUCUGCCACAAAGCUUGACAGCAUAUUCGGAUGCAGAGGCGGCAGGCUUCCGUGGCGCGAUAGCGCUAACGUUCUCAACUAUGACACGCAAAACGCGUGCUCCGUUGAAUAGAGUUUAUCAUG [A23U G48C C54A C75G G80C C96U G140A],≤ -4.2

# — the RNAGym collection of RNA variant scans (doi:10.1073/pnas.2313332121)
